Source: patent publication US12397052B2, “Microcapsule-based vaccine” (INSTITUTE OF PROCESS ENGINEERING, CHINESE ACADEMY OF …, priority 2018, dated 2025)

Columns and labels:
[1] = system: OVA+ cells; assay: Antigen utilization in thigh muscle by flow cytometry (OVA+ cells); format: in vivo, C57BL/6 mice; details: 5th day
Description: Five days later, the mice were killed, and their muscle tissues containing the microspheres were taken out, cut into small pieces with scissors, ground into a suspension, resuspended in PBS at 4° C., and centrifuged to remove the supernatant. To the centrifugal residue, was added 1 mL of a solution of an enzyme mixture (made by dissolving collagenase D and 100 U/mL recombinant DNase I in RPMI 1640 medium) at a concentration of 1 mg/mL. The mixture was incubated at 37° C. for 30 min, washed with PBS, and subjected to filtration with a 20 μm cell sieve to get rid of impurities, giving a single-cell suspension. […] The BD LSRFortessa flow cytometer was used to detect OVA^+ cells, CD 11c^+OVA^+ cells, and F4/80^+OVA^+ cells, and the data was analyzed using the Flowjo software.
In the embedding group, as a result of the excellent antigen-retention capability and antigen-release capability, the number of OVA^+ cells increased by about 50 times, the endocytosis of OVA increased by 4 times or more, and the utilization of the antigen increased by 200 times or more. […] The utilization of the antigen was calculated by normalizing the number of OVA^+ cells multiplied by the fluorescence intensity using the utilization of the antigen of the simple antigen group.

[2] = system: E.G7 tumor cells; assay: E.G7 lymphoma solid tumor model
Description: To construct E.G7 tumor-bearing mice models, 1×10^6 E.G7 tumor cells (purchased from ATCC) were injected into 6-8 weeks old female C57BL/6 mice (purchased from Beijing Weitonglihua Experimental Animal Co., Ltd.) on the armpit, and the tumor-bearing mice were randomly divided into groups each consisting of 6 mice. The mice were vaccinated when the tumor grew to a volume of 50-60 mm^3 on the 4th day. […] The volume of the tumor was calculated by this formula: V=1/2×L×W^2 (where L is the length of the tumor, and W is the width of the tumor).

B1: simple antigen group: preparation of a simple fluorescent antigen (OVA labeled with dye Cy5), no carrier (protein, UniProt P01012 2-386, looked up)
Ovalbumin: GSIGAASMEFCFDVFKELKVHHANENIFYCPIAIMSALAMVYLGAKDSTRTQINKVVRFDKLPGFGDSIEAQCGTSVNVHSSLRDILNQITKPNDVYSFSLASRLYAEERYPILPEYLQCVKELYRGGLEPINFQTAADQARELINSWVESQTNGIIRNVLQPSSVDSQTAMVLVNAIVFKGLWEKAFKDEDTQAMPFRVTEQESKPVQMMYQIGLFRVASMASEKMKILELPFASGTMSMLVLLPDEVSGLEQLESIINFEKLTEWTSSNVMEERKIKVYLPRMKMEEKYNLTSVLMAMGITDVFSSSANLSGISSAESLKISQAVHAAHAEINEAGREVVGSAEAGVDAASVSEEFRADHPFLFCIKHIATNAVLFFGRCVSP
modifications: Cy5 dye label
notes: preparation of a simple fluorescent antigen (OVA labeled with dye Cy5), no carrier
fluorescence intensity of intracellular OVA [1]: very weak | number of OVA+ cells [1]: small

B2: OVA: free OVA antigen (Sigma), low-dose several times or high-dose (60 μg) a single time (protein, UniProt P01012 2-386, looked up)
Ovalbumin: GSIGAASMEFCFDVFKELKVHHANENIFYCPIAIMSALAMVYLGAKDSTRTQINKVVRFDKLPGFGDSIEAQCGTSVNVHSSLRDILNQITKPNDVYSFSLASRLYAEERYPILPEYLQCVKELYRGGLEPINFQTAADQARELINSWVESQTNGIIRNVLQPSSVDSQTAMVLVNAIVFKGLWEKAFKDEDTQAMPFRVTEQESKPVQMMYQIGLFRVASMASEKMKILELPFASGTMSMLVLLPDEVSGLEQLESIINFEKLTEWTSSNVMEERKIKVYLPRMKMEEKYNLTSVLMAMGITDVFSSSANLSGISSAESLKISQAVHAAHAEINEAGREVVGSAEAGVDAASVSEEFRADHPFLFCIKHIATNAVLFFGRCVSP
25-day survival rate (SR) ([2]; mouse, in vivo): 17% | tumor growth (E.G7) ([2]; vaccinated on 4th day): not inhibited
